Measured values: the supplement of paper PMC10567573
± gives the standard deviation.

Test: protein stability index of a GFP-peptide fusion (GPS, HEK-293T) (PSI 1-6); higher = more stable
[1] = treatment: DMSO, c terminus: a fixed tail appended
[2] = treatment: MLN4924 1 uM, 8 h, c terminus: a fixed tail appended
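Note: 24-mer peptide tiles fused after GFP, lentivirally expressed, FACS-sorted into six equal bins by GFP/DsRed ratio, decoded by Illumina sequencing, PSI is the read-weighted mean bin number.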

Row | Sequence | protein stability index [1] | protein stability index [2] | protein stability index (treatment: DMSO, c terminus: native) | protein stability index (treatment: MLN4924 1 uM, 8 h, c terminus: native)
1 | LIPVPMATQIQQLLQDKQFELALQ [VPS39] | 2.31 ± 0.12 | 2.69 ± 0.29 | – | –
2 | GPRFLAYFGSFATVGLLWFAHHSL [TMEM175] | 3.17 ± 0.2 | 3 ± 0.27 | – | –
3 | CGSFYREPIILPCSHNLCQACARN [TRIM9] | 2.22 ± 0.25 | 2.19 ± 0.33 | – | –
4 | QLDKNSEVYQEVQAMFDTLGIPKS [FAM98B] | 3.11 ± 0.69 | 3.66 ± 0.59 | – | –
5 | KSMKPYNYCSAYESFYESTSPECA [NEUROD6] | 3.15 ± 0.17 | 3.23 ± 0.35 | – | –
6 | LTEAEGWHFFCFQGEATRKLAGK [SAT2] | – | – | 2.69 ± 0.29 | 3.02 ± 0.49
7 | KEEREDTPIQLQELLALETALGGQ [TCAP] | 5.17 ± 0.24 | 5.04 ± 0.14 | – | –
8 | YRHVMLPKDIAKLVPKTHLMSESE [CKS1B] | 3.75 ± 0.32 | 3.85 ± 0.23 | – | –
9 | TPMNHQKAVNDETCKASHITSSVF [FBXO34] | 3.75 ± 0.075 | 3.77 ± 0.1 | – | –
10 | AQVLLAMHANVEDRGIKGDITPLM [ANKRD17] | 2.99 ± 0.093 | 3.04 ± 0.13 | – | –
11 | GLTFLLPFLFFGHFWQLFNALTLF [TMEM120A] | 2.85 ± 0.11 | 2.63 ± 0.052 | – | –
12 | RHLERKAWVANFERPRMNANSLLA [CRY1] | 2.49 ± 0.27 | 3.1 ± 0.15 | – | –
13 | NSTQADEGKTKKGVLEAPDTQVNP [FBXO34] | 5.49 ± 0.19 | 5.41 ± 0.18 | – | –
14 | PLAQNERCLHMFLQDEIIDKSYTP [SNX3] | 2.97 ± 0.24 | 3.39 ± 0.22 | – | –
15 | KLQDLIKDVLRYGEEQLKTHKKCK [FCHO1] | 2.42 ± 0.35 | 2.22 ± 0.29 | – | –
16 | SGSESPSDSGKDLPEPSKRGPPHG [MYCL] | 5.4 ± 0.24 | 5.32 ± 0.12 | – | –
17 | ARWRRLRLQQLRRLRGLLRVLRGR [FBXO33] | 3.52 ± 0.39 | 3.95 ± 0.65 | – | –
18 | KLMKEILDKKVEKVTISNRLVSSP [HSP90AB1] | 2.81 ± 0.25 | 2.84 ± 0.42 | – | –
19 | RAGKMLMTLPLLRQTSTKAVQHFY [ESRRG] | 2.28 ± 0.31 | 2.16 ± 0.37 | – | –
20 | YFATFYSCTPRMNRRMVGPDVIPL [FAM189A2] | 2.72 ± 0.27 | 2.54 ± 0.55 | – | –
21 | REFSFTLKDDIYIRYQSFNNQSDL [PRIM1] | 2.26 ± 0.084 | 2.22 ± 0.41 | – | –
22 | PNLTYVYPHTRIQSLVSILRTTVH [CLCN6] | 2.38 ± 0.51 | 2.23 ± 0.17 | – | –

Row | Sequence | protein stability index [1] | protein stability index [2] | protein stability index (treatment: DMSO, c terminus: native) | protein stability index (treatment: MLN4924 1 uM, 8 h, c terminus: native)
23 | SGNMLGRHFFTSWASCLQYDFDTQ [WDFY1] | 2.47 ± 0.53 | 2.11 ± 0.12 | – | –
24 | SNEQLKVTQEPRAKKGRRNQSVEP [ZMYND11] | 5.2 ± 0.32 | 5.12 ± 0.44 | – | –
25 | SSWKHGSGTQYVSTRQTQSWTAVT [C18orf25] | 2.5 ± 0.11 | 2.52 ± 0.47 | – | –
26 | LTLSGIKEDNSLLNQGFLQAKPEK [MYBL2] | 4.53 ± 0.39 | 4.61 ± 0.099 | – | –
27 | HRRGLGVDSKPELQRVLEHRRRNQ [FAM107A] | 4.01 ± 0.4 | 4.11 ± 0.31 | – | –
28 | GLSAGYVDAGAEPGRSRMISQEEF [LPCAT4] | 4.47 ± 0.32 | 4.78 ± 0.23 | – | –
29 | TQCSEEDQCKINKQIYNLIHLDPR [FEM1B] | 3.48 ± 0.12 | 3.4 ± 0.28 | – | –
30 | TGRHYWEVDVQEAGAGWWVGAAYA [TRIM14] | 2.62 ± 0.8 | 2.58 ± 0.82 | – | –
31 | STRVCLQPIRGVEGSDYINASFID [PTPRD] | 3.18 ± 0.29 | 3.25 ± 0.41 | – | –
32 | SGADTAKCGIHSMFPLHLAALNAH [ANKRD44] | 2.07 ± 0.29 | 2.36 ± 0.11 | – | –
33 | FHHIPSTCQRVNGIKVQNGGIVTD [SLC19A2] | 2.47 ± 0.55 | 3 ± 0.41 | – | –
34 | DKLDGNELDLSLSDLNEVPVKELA [LRRC59] | 5.26 ± 0.093 | 5.34 ± 0.33 | – | –
35 | ADGIEVSYNACGVLSHIMFDGPEA [ZER1] | 2.93 ± 0.28 | 2.94 ± 0.27 | – | –
36 | CGYFQVVNYTQGLWEKVMPSRYAA [SLC19A2] | 2.7 ± 0.79 | 2.46 ± 0.41 | – | –
37 | LERQLQAEFIESGQYRANEGTSSI [TAF7L] | 4.7 ± 0.2 | 4.66 ± 0.12 | – | –
38 | RHNALLSKRLLALTSSDLGCQPSR [TMEM192] | 2.97 ± 0.13 | 3.14 ± 0.38 | – | –
39 | EIIKVTEQLIEAISNGDFESYTKM [CAMK2A] | 2.27 ± 0.53 | 1.91 ± 0.61 | – | –
40 | GAGAGAPGGGRLLLSTSLDAKDEL [INTS3] | 5.04 ± 0.27 | 5.08 ± 0.068 | – | –
41 | FICQATGDPRPKIVWNKKGKKVSN [PTPRD] | 2.84 ± 0.37 | 3.35 ± 0.68 | – | –
42 | PLNCAPCPRRSEPVVQCQYPSGAE [IRX6] | 3.93 ± 0.14 | 3.94 ± 0.12 | – | –
43 | NCSDFLESKGCFANTTPSGKSVSS [SPATS1] | 4.15 ± 0.2 | 4.35 ± 0.17 | – | –
44 | NLLQPNFEAAFGTTPSTSSSSSFD [SNAP91] | 4.11 ± 0.093 | 4.08 ± 0.046 | – | –
